Target: HSC70 (UniProt P11142)
Assay: Flag IP, blot for HA-HSC70
Conditions: reference: wild type, H2O2-treated cells; sites S371

binding against the reference: weaker
Substance: PHGDH (from UniProt O43175) S371A, H2O2-treated cells
